Reference: patent publication US20260248877A1 (Universite de Rennes, priority 2021, published 2026)
Values joined by “and” are separate entries in the source; they are usually repeats but may differ in a detail not shown here. Equal values may be shown once. “Also recorded” adds a separate entry of the source.

Tests used:
[1] = Determination of the aggregative character of the peptides by sedimentation; format: physicochemical; conditions: for % sedimentation: 800 μM peptide, sedimentable peptide after polymerization as percentage of total concentration (16p and 9tp: 288 μM per FIG. 3 legend); for aggregative character (in words): sedimentation, Garnier-Delamarche representation
Method: (§1) After thawing, a pre-dilution in milli Q H2O filtered through 0.2 μm was carried out in order to obtain a solution at a concentration close to the working concentration, greater than 1.25 times. This stock solution was left to incubate for 1 hour in a water bath at 25° C., and was then assayed spectrophotometrically and adjusted to the final working concentration of 1.25 times. The polymerization was initiated by adding ¼ of the volume of 5× fibrillation buffer (50 mM MOPS, 750 mM NaCl, pH=7.2) for a final concentration of 1× fibrillation buffer (10 mM MOPS, 150 mM NaCl, PH=7.2). The samples were left to incubate for 1.5-2 hours at 25° C. in a water bath. The study of the polymerization by fluorimetry was carried out under the same conditions, except that the 5× polymerization buffer was supplemented with Thioflavin T (ThT) at 100 μM in order to be able to observe the fluorescence. • (a) Determination of the Aggregative Character of the Peptides. Once polymerized, the samples were ultracentrifuged at 100,000 g for 5 minutes at 25° C. (Beckman TL100, rotor TL-A100). The supernatants of each sample were then collected. An assay at 280 nm in triplicate of each supernatant was then carried out in the presence of 1% SDS. The concentration of the supernatant was determined using the Beer-Lambert law A=ε×1×C; ε (peptides)=1450 M^−1cm^−1. The concentration of sedimentable species in the pellet was then deduced by the difference: “total concentration of the sample—concentration of free peptide present in the supernatant”. • (b) Determination of the Amyloidogenic Character of the Peptides. Once the peptides have polymerized as previously indicated, 40 μL of peptides polymerized at a concentration of 400 μM and 800 μM were diluted in 360 μL of Thioflavin T (10 μM ThT, 1×MOPS) in a thermostatically controlled tank of 0.2×1 cm, to a final volume of 400 μL. The fluorescence of the sample was then measured immediately after dilution by recording a fluorescence spectrum (470 nm to 600 nm) at an excitation wavelength of 450 nm (Perkin Elmer LS 55, PM 750, slit10).
(§2) After prediction of their amyloidogenic character by bioinformatics, all the peptides were studied using biochemical techniques, namely sedimentation and fluorescence/ThT. The biochemical experiments were carried out at two peptide concentrations: 400 μM and 800 μM. Only the results obtained at 800 μM are presented. At this concentration, in sedimentation, the amount of sedimentable peptide after polymerization was measured and expressed as a percentage as a function of the total concentration. This value corresponds to the aggregative character of the peptides. On the other hand, the fluorescence test was used to determine their amyloidogenic character, the fluorescence value given corresponds to a normalization with respect to 1p, considering that its fluorescence is 100% (Table 4).

[2] = Determination of the amyloidogenic character of the peptides by Thioflavin T fluorescence; format: physicochemical; conditions: for % fluorescence: 800 μM peptide, ThT fluorescence normalized to 1p = 100% (16p and 9tp: 288 μM per FIG. 3 legend); for amyloidogenic character (in words): ThT fluorescence, Garnier-Delamarche representation
Method: as §1, §2

[3] = target: T1, PHF6 peptide (VQIVYK, 1p) (Homo sapiens, UniProt P10636); assay: Effects of the derived peptides on VQIVYK polymerization by spectrofluorimetry (ThT kinetics); format: biochemical; conditions: [1p]=155 μM, [selected peptide]=310 μM; for inhibitory effect on 1p (PHF6) polymerization (in words): thresholds 50% rate, 100% fluorescence intensity; for fluorescence intensity (plateau / at 100 minutes) of 1p in the presence of peptide, % of 1p alone / maximum polymerization rate of 1p in the presence of peptide, % of 1p alone: [ThT]=32 μM
T1 construct: The polymerization of VQIVYK was initiated by adding ¼ of the volume of fibrillation buffer 5×

[4] = test system: cells of the neuroblastoma line SH-SY5Y; assay: Growth of SH-SY5Y neuroblastoma cells (images); format: cell-based; conditions: 100 μM, 24 hours, 1×DMEM medium, 8% serum
Method: The effects of three hexapeptides classified as “therapeutic” (1tp, 4tp, 6tp) and of two peptides classified as “amyloid” (7tp and 1p) on the growth of cells of the neuroblastoma line SH-SY5Y were studied after 24 hours of treatment in the presence of a hexapeptide at a concentration of 100 μM in 1×DMEM medium, 8% serum. The results obtained are presented on FIG. 10(A).

[5] = Solubility of peptides in aqueous medium; format: physicochemical; conditions: could not be tested at 800 μM
Method: The PHIF6 peptide (Ac-VQIVYK-NH2) as well as the derived hexapeptides were produced by Proteogenix® in an N-acetylated and C-amidated form and supplied in a lyophilized form. They are acetylated and amidated in order to better mimic the original protein. They were resuspended in milli Q water and filtered through 0.2 μm to obtain a concentration close to 5 mg/mL. After being vortexed for 15 minutes, the peptide solution was sonicated for 15 minutes at 35° C. in a sonicator water bath (Advantage-Lab AL04-04) then ultracentrifuged (Beckman TL100) at 100,000 g for 10 minutes at 20° C. The pellet containing the residual aggregates was discarded. The concentration of the supernatant was determined by measuring UV absorption at 280 nm using a molar extinction coefficient of 1450 M^−1cm^−1 in 1% SDS.

Substance | % sedimentation [1] | % fluorescence [2] | aggregative character (in words) [1] | amyloidogenic character (in words) [2] | also measured
YQVIVK (Ac-YQVIVK-NH2) [17p] | 95% | 2.3% |  |  | 
YIVVQK (Ac-YIVVQK-NH2) [13p] | 0% | 2.7% | weakly aggregative | weakly amyloidogenic | category of polymerization kinetics of 1p in the presence of peptide [3]: generally follow the kinetics of 1p alone; inhibitory effect on 1p (PHF6) polymerization (in words) [3]: without any inhibitory effect
Ac-VKIQYV-NH2 [4tp, VKIQYV] |  |  |  |  | effect on cell growth (number and appearance of cells) [4]: did not seem to have any effect
VKYQVI (Ac-VKYQVI-NH2) [3p] | 18% | 0.2% | more aggregative than the 10 selected hexapeptides | very poorly amyloidogenic | 
Ac-VQIVYK-NH2 [1p, Ac-VQIVYK-NH2, reference compound] |  |  | self-aggregative | strong amyloidogenic | effect on cell growth (number and appearance of cells) [4]: the number of cells seemed to strongly decrease
VVIKYQ (Ac-VVIKYQ-NH2) [3tp] | 48% | 0.9% |  |  | 
QKVYIV (Ac-QKVYIV-NH2) [19p] | 76% | 0.8% | vice versa | vice versa | 
IYVQKV (Ac-IYVQKV-NH2) [9p] | 1% | 2.1% | weakly aggregative | weakly amyloidogenic | category of polymerization kinetics of 1p in the presence of peptide [3]: generally follow the kinetics of 1p alone; inhibitory effect on 1p (PHF6) polymerization (in words) [3]: without any inhibitory effect
Ac-YQVKIV-NH2 [16p, YQVKIV] |  |  |  |  | solubility in aqueous medium [5]: low solubility
VQYVIK (Ac-VQYVIK-NH2) [5tp] | 26% | 71.7% | aggregative | amyloidogenic | 
KYVIQV (Ac-KYVIQV-NH2) [15p] | 71% | 3.9% |  |  | 
IQYVVK (Ac-IQYVVK-NH2) [8tp] | 78% | 17.5% |  |  | 
VQVKYI (Ac-VQVKYI-NH2) [21p] | 33% | 19.9% | poorly aggregative | amyloidogenic | 
VQIKYV (Ac-VQIKYV-NH2) [0tp] | 0% | 10.7% |  |  | 
VQVIYK (Ac-VQVIYK-NH2) [12p] | 14% | 82% and 81.6% |  |  | 
VQVYKI (Ac-VQVYKI-NH2) [22p] | 34% | 3% |  |  | 

Substance | % sedimentation [1] | % fluorescence [2] | aggregative character (in words) [1] | amyloidogenic character (in words) [2] | also measured
QKYIVV (Ac-QKYIVV-NH2) [8p] | 0% | 1.9% |  |  | category of polymerization kinetics of 1p in the presence of peptide [3]: very high rate and intensity of fluorescence; inhibitory effect on 1p (PHF6) polymerization (in words) [3]: without any inhibitory effect
KYIQVV (Ac-KYIQVV-NH2) [2p] | 67% | 2.8% |  |  | 
Ac-IQVVYK-NH2 [7tp, IQVVYK] |  |  |  |  | effect on cell growth (number and appearance of cells) [4]: the number of cells seemed to strongly decrease
IKQVYV (Ac-IKQVYV-NH2) [5p] | 5% | 1.1% | weakly aggregative | weakly amyloidogenic | category of polymerization kinetics of 1p in the presence of peptide [3]: generally follow the kinetics of 1p alone; inhibitory effect on 1p (PHF6) polymerization (in words) [3]: marked inhibitory effect; also recorded: with a weak inhibitory effect
VKVIYQ (Ac-VKVIYQ-NH2) [7p] | 86% | 1.3% |  |  | 
VQKIYV (Ac-VQKIYV-NH2) [4p] | 1% | 0.8% | weakly aggregative | weakly amyloidogenic | category of polymerization kinetics of 1p in the presence of peptide [3]: generally follow the kinetics of 1p alone; fluorescence intensity (plateau / at 100 minutes) of 1p in the presence of peptide, % of 1p alone [3]: 80%; maximum polymerization rate of 1p in the presence of peptide, % of 1p alone [3]: 50%; inhibitory effect on 1p (PHF6) polymerization (in words) [3]: inhibits the polymerization of 1p; also recorded: marked inhibitory effect; also recorded: with a weak inhibitory effect
Ac-VKIVYQ-NH2 [1tp, VKIVYQ] |  |  |  |  | fluorescence intensity (plateau / at 100 minutes) of 1p in the presence of peptide, % of 1p alone [3]: 23.5%; maximum polymerization rate of 1p in the presence of peptide, % of 1p alone [3]: 12%; effect on cell growth (number and appearance of cells) [4]: did not seem to have any effect
VVIQYK (Ac-VVIQYK-NH2) [2tp] | 58% | 2.9% |  |  | 
QVIKYV (Ac-QVIKYV-NH2) [23p] | 5% | 0.8% | weakly aggregative | weakly amyloidogenic | category of polymerization kinetics of 1p in the presence of peptide [3]: very high rate and intensity of fluorescence; fluorescence intensity (plateau / at 100 minutes) of 1p in the presence of peptide, % of 1p alone [3]: 161.7%; maximum polymerization rate of 1p in the presence of peptide, % of 1p alone [3]: 65%; inhibitory effect on 1p (PHF6) polymerization (in words) [3]: non-inhibitory peptide; also recorded: without any inhibitory effect
KQIVYV (Ac-KQIVYV-NH2) [20p] | 75% | 1.3% |  |  | 
VKVYIQ (Ac-VKVYIQ-NH2) [11p] | 6% | 25% |  |  | 
KVQYVI (Ac-KVQYVI-NH2) [14p] | 1% | 4.4% | weakly aggregative | weakly amyloidogenic | category of polymerization kinetics of 1p in the presence of peptide [3]: generally follow the kinetics of 1p alone; inhibitory effect on 1p (PHF6) polymerization (in words) [3]: without any inhibitory effect
QKVVYI (Ac-QKVVYI-NH2) [18p] | 51% | 6.8% |  |  | 
KVQIVY (Ac-KVQIVY-NH2) [10p] | 63% | 3.2% |  |  | 
Ac-YQVVIK-NH2 [9tp, YQVVIK] |  |  |  |  | solubility in aqueous medium [5]: low solubility
VVQKYI (Ac-VVQKYI-NH2) [6p] | 14% | 0.2% | weakly aggregative; also recorded: more aggregative than the 10 selected hexapeptides | weakly amyloidogenic; also recorded: very poorly amyloidogenic | 
